# B1: dual-RGD-dsRBD-18his (dual-RGD) recombinant protein (designed binder)
# chain: CDCRGDCFCAGDLSAGFFMEELNTYRQKQGVVLKYQELPNSGPPHDRRFTFQVIIDGREFPEGEGRSKKEAKNAAAKLAVEILNKEKKAVSPLLLTTTNSSEGLSMGNYIGLINRIAQKKRLTVNYEQCASGVHGPEGFHYKCKMGQKEYSIGTGSTKQEAKQLAAKLAYLQILSEETSVGRGDS
# notes: cyclic RGD peptide RGD-4C appended to the N-terminal of dsRBD-18His; linear GRGDS (Gly-Arg-Gly-Asp-Ser) peptide added to the C-terminal of dsRBD-18His; MW ~26 kDa (monomer); also called dual-RGD carrier; source: E. coli BL21 (DE3), purified (nickel resin), dialysed against PBS with 10% glycerol and 0.1% β-ME
# Biological target: the molecule itself
# Assay: non-reducing SDS-PAGE; purified dual-RGD under non-reducing conditions, Coomassie blue staining
protein,measurement,value
B1,stoichiometry N,2

# Reference: article PMC8703291, “Non-Cationic RGD-Containing Protein Nanocarrier for Tumor-Targeted siRNA Delivery” (Pharmaceutics, 2021)
